Results reported in patent US20250134956A1 (published 2025).

T1: Kita-kyushu lung cancer antigen 1 (CT83, KKLC1, CXorf61) peptide on HLA-A*02 (human)
T1 peptide: KLVELEHTLL

T2: Kita-kyushu lung cancer antigen 1 (CT83, KKLC1, CXorf61) peptide on HLA-A*02 (human)
T2 peptide: RILVNLSMV


Target: T1, Kita-kyushu lung cancer antigen 1 …
Test: binding, other

binding result	Binder
recognises	TCR of SEQ ID NOs 10 and 11 (TCR, V domains shown) Valpha: KQEVTQIPAALSVPEGENLVLNCSFTDSAIYNLQWFRQDPGKGLTSLLLIQSSQREQTSGRLNASLDKSSGRSTLYIAASQPGDSATYLCAVTTQGGSEKLVFGKGTKLTVNP Vbeta: NAGVTQTPKFQVLKTGQSMTLQCAQDMNHEYMSWYRQDPGMGLRLIHYSVGAGITDQGEVPNGYNVSRSTTEDFPLRLLSAAPSQTSVYFCASSYSDRGYSPLHFGNGTRLTVT
recognises	TCR of SEQ ID NOs 14 and 15 (TCR, V domains shown) Valpha: KQEVTQIPAALSVPEGENLVLNCSFTDSAIYNLQWFRQDPGKGLTSLLLIQSSQREQTSGRLNASLDKSSGRSTLYIAASQPGDSATYLCAVGGEETSGSRLTFGEGTQLTVNP Vbeta: NAGVTQTPKFQVLKTGQSMTLQCAQDMNHEYMSWYRQDPGMGLRLIHYSVGAGITDQGEVPNGYNVSRSTTEDFPLRLLSAAPSQTSVYFCASSYSDRGYSPLHFGNGTRLTVT
recognises	TCR of SEQ ID NOs 12 and 13 (TCR, V domains shown) Valpha: KQEVTQIPAALSVPEGENLVLNCSFTDSAIYNLQWFRQDPGKGLTSLLLIQSSQREQTSGRLNASLDKSSGRSTLYIAASQPGDSATYLCAVMEDSGYALNFGKGTSLLVTP Vbeta: NAGVTQTPKFQVLKTGQSMTLQCAQDMNHEYMSWYRQDPGMGLRLIHYSVGAGITDKGEVPNGYNVSRLNKREFSLRLESAAPSQTSVYFCASSRTGYYGYTFGSGTRLTVV

Target: T2, Kita-kyushu lung cancer antigen 1 …
Test: binding, other

binding result	Binder
recognises	TCR of SEQ ID NOs 20 and 21 (TCR, V domains shown) Valpha: KQEVTQIPAALSVPEGENLVLNCSFTDSAIYNLQWFRQDPGKGLTSLLLIQSSQREQTSGRLNASLDKSSGRSTLYIAASQPGDSATYLCAVNELGRLYFGRGTQLTVWP Vbeta: NAGVTQTPKFQVLKTGQSMTLQCAQDMNHEYMSWYRQDPGMGLRLIHYSVGAGITDQGEVPNGYNVSRSTTEDFPLRLLSAAPSQTSVYFCASSYSGGYTFGSGTRLTVV
recognises	TCR of SEQ ID NOs 16 and 17 (TCR, V domains shown) Valpha: KQEVTQIPAALSVPEGENLVLNCSFTDSAIYNLQWFRQDPGKGLTSLLLIQSSQREQTSGRLNASLDKSSGRSTLYIAASQPGDSATYLCAVSGNTPLVFGKGTRLSVIA Vbeta: NAGVTQTPKFRVLKTGQSMTLLCAQDMNHEYMYWYRQDPGMGLRLIHYSVGEGTTAKGEVPDGYNVSRLKKQNFLLGLESAAPSQTSVYFCASSYVGNTEAFFGQGTRLTVV
recognises	TCR of SEQ ID NOs 18 and 19 (TCR, V domains shown) Valpha: KQEVTQIPAALSVPEGENLVLNCSFTDSAIYNLQWFRQDPGKGLTSLLLIQSSQREQTSGRLNASLDKSSGRSTLYIAASQPGDSATYLCAPSGNTPLVFGKGTRLSVIA Vbeta: NAGVTQTPKFRVLKTGQSMTLLCAQDMNHEYMYWYRQDPGMGLRLIHYSVGEGTTAKGEVPDGYNVSRLKKQNFLLGLESAAPSQTSVYFCASSFLGNTEAFFGQGTRLTVV
